Source: US20260266848A1, “COMPOSITIONS AND METHODS FOR DIAGNOSING AND TREATING DYSTONIA” (Duke University, priority 2023, published 2026)

B1: Ap1b1 (protein, UniProt O35643 1-943, looked up)
AP-1 complex subunit beta-1: MTDSKYFTTTKKGEIFELKAELNSDKKEKKKEAVKKVIASMTVGKDVSALFPDVVNCMQTDNLELKKLVYLYLMNYAKSQPDMAIMAVNTFVKDCEDPNPLIRALAVRTMGCIRVDKITEYLCEPLRKCLKDEDPYVRKTAAVCVAKLHDINAQLVEDQGFLDTLKDLISDSNPMVVANAVAALSEIAESHPSSNLLDLNPQSINKLLTALNECTEWGQIFILDCLANYMPKDDREAQSICERVTPRLSHANSAVVLSAVKVLMKFMEMLSKDLDYYATLLKKLAPPLVTLLSAEPELQYVALRNINLIVQKRPEILKHEMKVFFVKYNDPIYVKLEKLDIMIRLASQANIAQVLAELKEYATEVDVDFVRKAVRAIGRCAIKVEQSAERCVSTLLDLIQTKVNYVVQEAIVVIKDIFRKYPNKYESVIATLCENLDSLDEPEARAAMIWIVGEYAERIDNADELLESFLEGFHDESTQVQLQLLTAIVKLFLKKPTETQELVQQVLSLATQDSDNPDLRDRGYIYWRLLSTDPVAAKEVVLAEKPLISEETDLIEPTLLDELICYIGTLASVYHKPPNAFVEGGRGVVHKSLPPRTASSESTESPETAPAGAPAGDQPDVIPAQGDLLGDLLNLDLGPPVSGPPLAASSVQMGAVDLLGGGLDSLIGDSNFGAPSASVAAAPAPARLGAPISSGLSDLFDLTSGVGTLSGSYVAPKAVWLPAMKAKGLEISGTFTRQAGSISMDLQLTNKALQVMTDFAIQFNRNSFGLAPAAPLQVHVPLSPNQTVEISLPLNTVGSVLKMEPLNNLQVAVKNNIDVFYFSTLYPLHVLFVEDGKMDRQMFLATWKDIANENEAQFQIRDCPLNTEAASNKLQSSNIFTVAKRNVEGQDMLYQSLKLTNGIWVLAELRIQPGNPSFTLSLKCRAPEVSQHVYQAYETILKN
B2: Pbdc1 (protein, UniProt Q9D0B6 1-198, looked up)
Protein PBDC1: MDAAGESEEPVSGEALSIAHALSHPPESYGNDPDIEMAWAIRAMQHAEVYYKLISSVDPQFLKLTKVDDQIYSEFREIFETLRVDVLDPEELKSESAKEKWRPFCLKFEGIVEDYNYGTLLRLDCSQGYTEENTIFAPRIQFFAIEIARNREGYNKAVSVSIQDKEGEEGAGNKEEAAEKGADSGGEKEEGANREGEK
B3: Upf1 (protein, UniProt Q9EPU0 1-1124, looked up)
Regulator of nonsense …: MSVEAYGPSSQTLTFLDTEEAELLGADTQGSEFEFTDFTLPSQTQTPPGGPGGAGGPGGAGAGGAAGQLDAQVGPEGILQNGAVDDSVAKTSQLLAELNFEEDEEDTYYTKDLPVHACSYCGIHDPACVVYCNTSKKWFCNGRGNTSGSHIVNHLVRAKCKEVTLHKDGPLGETVLECYNCGCRNVFLLGFIPAKADSVVVLLCRQPCASQSSLKDINWDSSQWQPLIQDRCFLSWLVKIPSEQEQLRARQITAQQINKLEELWKENPSATLEDLEKPGVDEEPQHVLLRYEDAYQYQNIFGPLVKLEADYDKKLKESQTQDNITVRWDLGLNKKRIAFFTLPKTDSGNEDLVIIWLRDMRLMQGDEICLRYKGDLAPLWKGIGHVIKVPDNYGDEIAIELRSSVGAPVEVTHNFQVDFVWKSTSFDRMQSALKTFAVDETSVSGYIYHKLLGHEVEDVVIKCQLPKRFTAQGLPDLNHSQVYAVKTVLQRPLSLIQGPPGTGKTVTSATIVYHLARQGNGPVLVCAPSNIAVDQLTEKIHQTGLKVVRLCAKSREAIDSPVSFLALHNQIRNMDSMPELQKLQQLKDETGELSSADEKRYRALKRTAERELLMNADVICCTCVGAGDPRLAKMQFRSILIDESTQATEPECMVPVVLGAKQLILVGDHCQLGPVVMCKKAAKAGLSQSLFERLVVLGIRPIRLQVQYRMHPALSAFPSNIFYEGSLQNGVTAADRVKKGFDFQWPQPDKPMFFYVTQGQEEIASSGTSYLNRTEAANVEKITTKLLKAGAKPDQIGIITPYEGQRSYLVQYMQFSGSLHTKLYQEVEIASVDAFQGREKDFIILSCVRANEHQGIGFLNDPRRLNVALTRARYGVIIVGNPKALSKQPLWNHLLSYYKEQKALVEGPLNNLRESLMQFSKPRKLVNTVNPGARFMTTAMYDAREAIIPGSVYDRSSQGRPSNMYFQTHDQISMISAGPSHVAAMNIPIPFNLVMPPMPPPGYFGQANGPAAGRGTPKTKTGRGGRQKNRFGLPGPSQTTLPNSQASQDVASQPFSQGALTQGYVSMSQPSQMSQPGLSQPELSQDSYLGDEFKSQIDVALSQDSTYQGERAYQHGGVTGLSQY
B4: Dpp3 (protein, UniProt Q99KK7 2-738, looked up)
Dipeptidyl peptidase 3: ADTQYILPNDIGVSSLDCREAFRLLSPTERLYAHHLSRAAWYGGLAVLLQTSPEAPYIYALLSRLFRAQDPDQLRQHALAEGLTEEEYQAFLVYAAGVYSNMGNYKSFGDTKFVPNLPKDKLGRVILGSKAAQQRPEEVRDLWQTCGDLMFSLEPRLRHLGLGKEGVTTYFSGDCTMEDAKLAQDFLDSQNLSAYNTRLFKVVGQEGKSHYEVRLASVLNTDPALDSELTSKLKRYEFQGNHFQVTRGDYAPILQKVVEHLEKAKAYAANSHQEQMLAQYVESFTQGSIEAHKRGSRFWIQDKGPIVESYIGFIESYRDPFGSRGEFEGFVAMVNKAMSAKFERLVASAEQLLKELPWPLAFEKDKFLTPDFTSLDVLTFAGSGIPAGINIPNYDDLRQTEGFKNVSLGNVLAVAYAAKREKLTFLEEEDKDLYIRWKGPSFDVQVGLHELLGHGSGKLFVQDEKGAFNFDKETVINPETGEQIQSWYRSGETWDSKFSTIASSYEECRAESVGLYLCLNPQVLEIFGFEGADAEDVIYVNWLNMVRAGLLALEFYTPEAANWRQAHMQARFVILRVLLEAGEGLVTVTPTTGSDGRPDARVRLDRSKIRSVGRPALERFLRRLQVLKSTGDVVAGRALYEGYAAVTDAPPECFLTLRDTVLLRKESRKLIVQPNTRLEGSEVQLVEYEASAAGLIRSFCERFPEDGPELEEVLIQLAAADARFWRNQAQEAPPGQA
B5: Copb2 (protein, UniProt O55029 1-905, looked up)
Coatomer subunit beta': MPLRLDIKRKLTARSDRVKSVDLHPTEPWMLASLYNGSVCVWNHETQTLVKTFEVCDLPVRAAKFVARKNWVVTGADDMQIRVFNYNTLERVHMFEAHSDYIRCIAVHPTQPFILTSSDDMLIKLWDWDKKWSCSQVFEGHTHYVMQIVINPKDNNQFASASLDRTIKVWQLGSSSPNFTLEGHEKGVNCIDYYSGGDKPYLISGADDRLVKIWDYQNKTCVQTLEGHAQNVSCASFHPELPIIITGSEDGTVRIWHSSTYRLESTLNYGMERVWCVASLRGSNNVALGYDEGSIIVKLGREEPAMSMDANGKIIWAKHSEVQQANLKAMGDTEIKDGERLPLAVKDMGSCEIYPQTIQHNPNGRFVVVCGDGEYIIYTAMALRNKSFGSAQEFAWAHDSSEYAIRESNSIVKIFKNFKEKKSFKPDFGAESIYGGFLLGVRSVNGLAFYDWENTELIRRIEIQPKHIFWSDSGELVCIATEESFFILKYLSEKVLAAQETHEGVTEDGIEDAFEVLGEIQEIVKTGLWVGDCFIYTSSVNRLNYYVGGEIVTIAHLDRTMYLLGYIPKDNRLYLGDKELNIVSYSLLVSVLEYQTAVMRRDFSMADKVLPTIPKEQRTRVAHFLEKQGFKQQALTVSTDPEHRFELALQLGELKIAYQLAVEAESEQKWKQLAELAISKCQFSLAQECLHHAQDYGGLLLLATASGNASMVNKLAEGAERDGKNNVAFMSYFLQGKLDACLELLIRTGRLPEAAFLARTYLPSQVSRVVKLWRENLSKVNQKAAESLADPTEYENLFPGLKEAFVVEEWVKETHADLWPAKQYPLVTPNEERNVMEEAKGFQPSRPTAQQEPDGKPASSPVIMASQTTHKEEKSLLELEVDLDNLELEDIDTTDINLDEDILDD
B6: Hnrnpl (protein, UniProt P14866 1-589, looked up)
Heterogeneous nuclear …: MSRRLLPRAEKRRRRLEQRQQPDEQRRRSGAMVKMAAAGGGGGGGRYYGGGSEGGRAPKRLKTDNAGDQHGGGGGGGGGAGAAGGGGGGENYDDPHKTPASPVVHIRGLIDGVVEADLVEALQEFGPISYVVVMPKKRQALVEFEDVLGACNAVNYAADNQIYIAGHPAFVNYSTSQKISRPGDSDDSRSVNSVLLFTILNPIYSITTDVLYTICNPCGPVQRIVIFRKNGVQAMVEFDSVQSAQRAKASLNGADIYSGCCTLKIEYAKPTRLNVFKNDQDTWDYTNPNLSGQGDPGSNPNKRQRQPPLLGDHPAEYGGPHGGYHSHYHDEGYGPPPPHYEGRRMGPPVGGHRRGPSRYGPQYGHPPPPPPPPEYGPHADSPVLMVYGLDQSKMNCDRVFNVFCLYGNVEKVKFMKSKPGAAMVEMADGYAVDRAITHLNNNFMFGQKLNVCVSKQPAIMPGQSYGLEDGSCSYKDFSESRNNRFSTPEQAAKNRIQHPSNVLHFFNAPLEVTEENFFEICDELGVKRPSSVKVFSGKSERSSSGLLEWESKSDALETLGFLNHYQMKNPNGPYPYTLKLCFSTAQHAS

test system: WT MEF EVs; assay: Quantitative LC-MS/MS proteomics of EVs from ISRIB-treated WT MEF cultures; format: cell-based, mouse; parameters: key to ISRIB and DYT Parallel Direction / ISRIB and DYT Parallel Direction, Ctdsp1 / ISRIB and DYT Parallel Direction, Pcdh19 / ISRIB and DYT Parallel Direction, Tspan7 / ISRIB and DYT Parallel Direction, Myo1e / ISRIB and DYT Parallel Direction, Plpp3 / ISRIB and DYT Parallel Direction, Sh3bp4 / ISRIB and DYT Parallel Direction, Dnajc7 / ISRIB and DYT Parallel Direction, Drg1 / ISRIB and DYT Parallel Direction, Maea: YES = protein abundance effect similar to DYT/WT; details: EV protein abundance, ISRIB-treated WT vs WT

Molecule	WT + ISRIB/WT Cohen's d
B1	−1.08
B2	−1.06
B3	−1.84
B4	−1.56
B5	−1.11
B6	−0.32

same assay, conditions: EV protein abundance, WT + ISRIB vs WT, direction compared with DYT/WT

Molecule	ISRIB and DYT Parallel Direction
B1	YES
B2	YES
B3	YES
B4	YES
B5	YES
B6	YES

test system: DYT-TOR1A MEF EVs; assay: Quantitative LC-MS/MS proteomics of EVs from drug-treated DYT-TOR1A MEF cultures (ritonavir, salubrinal); format: cell-based, mouse; parameters: key to RTV Corrective Direction / RTV Corrective Direction, Grwd1 / RTV Corrective Direction, Srrm2 / RTV Corrective Direction, Rbm17 / RTV Corrective Direction, Dcaf8 / RTV Corrective Direction, Edil3 / RTV Corrective Direction, Timp3 / RTV Corrective Direction, Heatr3 / RTV Corrective Direction, Brd4 / RTV Corrective Direction, P3h4 / RTV Corrective Direction, Pacsin3 / RTV Corrective Direction, Naa50 / RTV Corrective Direction, Lpar6 / RTV Corrective Direction, Ndrg1 / RTV Corrective Direction, Kntc1 / RTV Corrective Direction, Cdk11b / RTV Corrective Direction, Sumo1 / RTV Corrective Direction, Lsm4 / RTV Corrective Direction, Hmga2 / RTV Corrective Direction, Cstf1 / RTV Corrective Direction, Tes / RTV Corrective Direction, Sbno1 / RTV Corrective Direction, Unc119b / RTV Corrective Direction, Cfdp1 / RTV Corrective Direction, Sec61b: YES = protein abundance effect opposite to DYT/WT; details: EV protein abundance, DYT + RTV (ritonavir) vs DYT, direction compared with DYT/WT

Molecule	RTV Corrective Direction
B1	YES
B2	YES
B3	YES
B4	YES
B5	YES
B6	YES

same assay, conditions: EV protein abundance, ritonavir (RTV)-treated DYT vs DYT

Molecule	DYT + RTV/DYT Cohen's d
B1	4.53
B2	3.36
B3	4.24
B4	5.13
B5	6.13
B6	6.17
